Here are results for one substance from patent US20070042353.

Data set [1] deals with HCV NS5B552 (Hepatitis C virus (BK strain, genotype 1b)) (UniProt P26663). The note with it: [3H]UTP incorporation, 5 mM MgCl2, 50 mM NaCl, pH 7.5, 25 C, 90 min.
The target in data set [2] is HCV NS5B544 (Hepatitis C virus (BK strain, genotype 1b)) (UniProt P26663). The note with it: [3H]UTP incorporation, 5 mM MgCl2, 50 mM NaCl, pH 7.5, 25 C, 90 min.
The target of data set [3] is HCV NS5B531 (Hepatitis C virus (BK strain, genotype 1b)) (UniProt P26663). The note with it: [3H]UTP incorporation, 5 mM MgCl2, 50 mM NaCl, pH 7.5, 25 C, 90 min.
Data set [4] deals with HCV NS5B591 (full length) (Hepatitis C virus (BK strain, genotype 1b)) (UniProt P26663). The note with it: reference enzyme; [3H]UTP incorporation, 5 mM MgCl2, 50 mM NaCl, pH 7.5, 25 C, 90 min.
Data set [5] has as its target HCV NS5B570 (Hepatitis C virus (BK strain, genotype 1b)) (UniProt P26663). The conditions noted are these: [3H]UTP incorporation, 5 mM MgCl2, 50 mM NaCl, pH 7.5, 25 C, 90 min.
Data set [6] addresses HCV NS5B536 (Hepatitis C virus (BK strain, genotype 1b)) (UniProt P26663). The conditions noted are these: [3H]UTP incorporation, 5 mM MgCl2, 50 mM NaCl, pH 7.5, 25 C, 90 min.

In the case of “HCV NS5B 3' end + 3'UTR (polyU and 3'X) template RNA, about 450 nt”, the activity in data set [1] was 147 % of NS5B591; in data set [2], 2010 % of NS5B591; in data set [3] it was 2150 % of NS5B591; in data set [4], 100 % of NS5B591; in data set [5], 3 % of NS5B591; in data set [6] it was 2110 % of NS5B591.
